Measured values reported in article PMC7949046, “Human genetic variants disrupt RGS14 nuclear shuttling and regulation of LTP in hippocampal neurons” (The Journal of Biological Chemistry, 2020).

Biological target: T1, purified XPO1-GST (GST-CRM1, Exportin 1) (human, UniProt O14980 1-1071)
T1 construct: Results and legend name the protein of the pull-down XPO1-GST / GST-XPO1, but the methods say that CRM1/XPO1 was cleaved from the beads with TEV protease; also called GST-XPO1; CRM1/XPO1; source: E. coli BL21, purified (glutathione Sepharose 4B)
Assay: pull-down; purified RGS14 mixed 2 h with purified XPO1-GST and His-Ran Q69L-GTP; His-Ran captured on Ni-NTA; Coomassie and immunoblot
Details: both partners purified

T1 sequence (O14980 whole entry): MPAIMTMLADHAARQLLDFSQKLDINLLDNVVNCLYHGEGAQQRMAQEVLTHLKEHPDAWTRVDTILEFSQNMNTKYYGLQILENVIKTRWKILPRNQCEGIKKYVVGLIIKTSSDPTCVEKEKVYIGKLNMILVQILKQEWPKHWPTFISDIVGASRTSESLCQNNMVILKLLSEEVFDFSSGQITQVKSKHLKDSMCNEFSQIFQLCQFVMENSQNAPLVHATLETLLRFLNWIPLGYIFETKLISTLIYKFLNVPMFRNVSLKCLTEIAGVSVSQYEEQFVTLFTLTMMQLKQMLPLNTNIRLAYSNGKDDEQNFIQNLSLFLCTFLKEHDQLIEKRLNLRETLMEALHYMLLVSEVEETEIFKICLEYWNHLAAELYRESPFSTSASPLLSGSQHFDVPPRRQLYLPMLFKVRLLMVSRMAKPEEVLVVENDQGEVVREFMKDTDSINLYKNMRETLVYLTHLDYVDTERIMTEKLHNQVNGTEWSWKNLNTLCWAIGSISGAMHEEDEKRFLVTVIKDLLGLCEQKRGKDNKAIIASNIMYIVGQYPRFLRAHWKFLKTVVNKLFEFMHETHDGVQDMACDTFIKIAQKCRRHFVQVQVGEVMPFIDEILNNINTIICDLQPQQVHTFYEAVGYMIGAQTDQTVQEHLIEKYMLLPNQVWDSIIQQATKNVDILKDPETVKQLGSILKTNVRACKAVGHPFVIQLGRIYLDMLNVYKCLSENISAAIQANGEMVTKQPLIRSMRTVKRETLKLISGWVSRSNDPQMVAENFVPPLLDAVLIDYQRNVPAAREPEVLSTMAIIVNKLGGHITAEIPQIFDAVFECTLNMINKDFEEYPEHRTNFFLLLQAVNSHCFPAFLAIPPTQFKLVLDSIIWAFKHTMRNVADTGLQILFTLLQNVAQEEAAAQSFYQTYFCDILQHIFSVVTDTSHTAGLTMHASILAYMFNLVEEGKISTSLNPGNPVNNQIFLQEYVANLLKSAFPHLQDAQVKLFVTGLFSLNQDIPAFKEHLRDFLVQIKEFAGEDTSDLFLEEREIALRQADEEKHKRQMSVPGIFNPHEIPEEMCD

binding result: binds
B1: recombinant RGS14 WT, purified from E. coli (natural protein, rat, UniProt O08773 1-544, looked up)
chain: MPGKPKHLGVPNGRMVLAVSDGELTSTSGSQAQGEGRGSSLSIHSLPSGPSSPFSTDEQPVASWAQSFERLLQDPRGLAYFTEFLKKEFSAENVTFWQACERFQQIPASDTKQLAQEAHNIYHEFLSSQALSPVNIDRQAWLSEEVLAQPRPDMFRAQQLQIFNLMKFDSYARFVKSPLYQECLLAEAEGRPLREPGSSHLGSPDTARKKPKLKPGKSLPLGVEELGQLPLAEGRPLRKSFRREMPGGAVNSALRRESQGSLNSSASLDLGFLAFVSSKSESHRKSLGSGEGESESRPGKYCCVYLPDGTASLALARPGLTIRDMLAGICEKRGLSLPDIKVYLVGKEQKALVLDQDCTVLADQEVRLENRITFQLELVGLERVVRISAKPTKRLQEALQPILAKHGLSLDQVVLHRPGEKQLVDLENLVSSVASQTLVLDTLPDAKTREASSIPPCRSQGCLPRTQTKDSHLPPLSSSLSVEDASGSTGKRQTCDIEGLVELLNRVQSSGAHDQRGLLRKEDLVLPEFLQLPSQRPGSQEAPP
notes: RGS14, rat; expressed as MBP-TEV-RGS14 (the constructs paragraph names pLic-GST); The methods call the fusion MBP-TEV-RGS14 but purify it on a glutathione column and name the vector pLic-GST; the carrier may have been GST; also called WT RGS14; not shown: MBP, N-terminal, cleaved
